Test results as given in patent publication US20190315842A1 (DUKE UNIVERSITY, published 2019).

Columns and labels:
[1] = target: ribonucleoprotein (RNP); experiment: AtheNA Multi-Lyte ANA, Ab at 50 ug/ml;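 note: monoclonal antibodies probed against a nuclear autoantigen panel (SSA, SSB, Sm, RNP, Scl-70, Jo-1, dsDNA, CentB, histones), with anti-HIV 4E10 and palivizumab as control antibodies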
Description: (§1) All 7 mAbs were tested against the AtheNA Multi-Lyte panel of autoantigens. The AtheNA Multi-Lyte ANA test for a panel of nuclear antigens: systemic lupus erythematosus autoantigens SSA and SSB, sphingomyelin (Sm), ribonucleoprotein (RNP), sclerosis autoantigen (Scl-70), histidine-tRNA ligase (Jo-1), double-stranded DNA (dsDNA), centromere B (CentB), and histones. 4e10 (Anti HIV, NIH AIDS Reagent Program) and SYNAGIS® (anti-RSV monoclonal antibody palivizumab; “Synagis”) were used a controls.

[2] = target: T1, sclerosis autoantigen (Scl-70) (UniProt P11387 2-765, limits assumed); experiment: AtheNA Multi-Lyte ANA, Ab at 50 ug/ml;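 note: monoclonal antibodies probed against a nuclear autoantigen panel (SSA, SSB, Sm, RNP, Scl-70, Jo-1, dsDNA, CentB, histones), with anti-HIV 4E10 and palivizumab as control antibodies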
T1 sequence (looked up): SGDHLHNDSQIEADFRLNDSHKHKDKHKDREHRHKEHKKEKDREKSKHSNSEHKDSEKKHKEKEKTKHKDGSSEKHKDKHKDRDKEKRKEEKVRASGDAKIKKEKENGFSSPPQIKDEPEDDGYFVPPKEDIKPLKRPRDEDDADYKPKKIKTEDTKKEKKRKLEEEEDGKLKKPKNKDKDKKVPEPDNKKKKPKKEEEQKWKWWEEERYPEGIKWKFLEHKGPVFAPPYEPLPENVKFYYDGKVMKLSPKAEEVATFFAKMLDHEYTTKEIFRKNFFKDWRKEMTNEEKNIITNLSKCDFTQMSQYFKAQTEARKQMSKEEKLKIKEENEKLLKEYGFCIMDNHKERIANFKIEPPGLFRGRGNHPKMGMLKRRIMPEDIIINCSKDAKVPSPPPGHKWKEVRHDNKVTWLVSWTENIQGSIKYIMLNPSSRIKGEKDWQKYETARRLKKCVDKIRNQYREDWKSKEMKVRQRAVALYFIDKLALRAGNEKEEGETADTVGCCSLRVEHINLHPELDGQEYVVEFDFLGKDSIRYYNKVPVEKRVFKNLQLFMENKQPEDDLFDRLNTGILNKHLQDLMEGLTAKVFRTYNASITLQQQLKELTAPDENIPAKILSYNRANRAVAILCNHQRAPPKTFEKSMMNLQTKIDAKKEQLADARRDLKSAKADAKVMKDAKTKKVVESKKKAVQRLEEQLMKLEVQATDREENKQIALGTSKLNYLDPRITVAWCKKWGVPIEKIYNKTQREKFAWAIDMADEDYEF
Description: as §1

[3] = target: T2, Sm (sphingomyelin); experiment: AtheNA Multi-Lyte ANA, Ab at 50 ug/ml;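 note: monoclonal antibodies probed against a nuclear autoantigen panel (SSA, SSB, Sm, RNP, Scl-70, Jo-1, dsDNA, CentB, histones), with anti-HIV 4E10 and palivizumab as control antibodies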
T2 construct: in an ANA panel of nuclear antigens Sm is usually the Smith ribonucleoprotein antigen; Kept, but see recheck
Description: as §1

[4] = target: systemic lupus erythematosus autoantigen SSA; experiment: AtheNA Multi-Lyte ANA, Ab at 50 ug/ml;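 note: monoclonal antibodies probed against a nuclear autoantigen panel (SSA, SSB, Sm, RNP, Scl-70, Jo-1, dsDNA, CentB, histones), with anti-HIV 4E10 and palivizumab as control antibodies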
Description: as §1

[5] = target: T3, histidine-tRNA ligase (Jo-1) (UniProt P12081 2-509); experiment: AtheNA Multi-Lyte ANA, Ab at 50 ug/ml
T3 sequence (looked up): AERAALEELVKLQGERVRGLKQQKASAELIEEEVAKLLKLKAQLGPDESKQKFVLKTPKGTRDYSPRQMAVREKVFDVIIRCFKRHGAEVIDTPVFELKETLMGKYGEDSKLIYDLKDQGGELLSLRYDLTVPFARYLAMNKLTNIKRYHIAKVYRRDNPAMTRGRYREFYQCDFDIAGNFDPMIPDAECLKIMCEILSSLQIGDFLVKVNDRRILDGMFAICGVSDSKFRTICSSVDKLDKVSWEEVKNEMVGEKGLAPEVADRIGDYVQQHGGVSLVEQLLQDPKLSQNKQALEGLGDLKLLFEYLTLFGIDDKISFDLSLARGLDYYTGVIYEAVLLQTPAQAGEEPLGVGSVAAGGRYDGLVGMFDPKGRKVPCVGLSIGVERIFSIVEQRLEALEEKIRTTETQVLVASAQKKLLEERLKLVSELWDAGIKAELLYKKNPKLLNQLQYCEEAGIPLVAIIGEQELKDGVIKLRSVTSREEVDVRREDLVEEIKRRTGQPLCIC
Description: as §1

[6] = target: T4, systemic lupus erythematosus autoantigen SSB (UniProt P05455 1-408, limits assumed); experiment: AtheNA Multi-Lyte ANA, Ab at 50 ug/ml
T4 sequence (looked up): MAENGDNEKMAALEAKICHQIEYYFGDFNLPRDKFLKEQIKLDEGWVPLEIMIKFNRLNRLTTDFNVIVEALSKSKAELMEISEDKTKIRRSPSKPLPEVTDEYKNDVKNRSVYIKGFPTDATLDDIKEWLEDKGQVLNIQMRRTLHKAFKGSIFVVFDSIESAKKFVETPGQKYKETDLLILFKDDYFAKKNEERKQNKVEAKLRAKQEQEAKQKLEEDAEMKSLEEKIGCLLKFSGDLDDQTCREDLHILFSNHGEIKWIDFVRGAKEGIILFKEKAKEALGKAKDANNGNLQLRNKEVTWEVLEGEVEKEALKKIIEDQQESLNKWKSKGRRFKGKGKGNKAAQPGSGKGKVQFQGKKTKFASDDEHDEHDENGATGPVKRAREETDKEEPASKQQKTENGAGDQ
Description: as §1

[7] = target: ribonucleoprotein (RNP); experiment: AtheNA Multi-Lyte ANA, Ab at 6.25 ug/ml;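 note: monoclonal antibodies screened for reactivity against a panel of nuclear autoantigens, with an anti-HIV and an anti-RSV monoclonal antibody serving as controls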
[8] = target: T1, sclerosis autoantigen (Scl-70); experiment: AtheNA Multi-Lyte ANA, Ab at 6.25 ug/ml;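 note: monoclonal antibodies screened for reactivity against a panel of nuclear autoantigens, with an anti-HIV and an anti-RSV monoclonal antibody serving as controls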
[9] = target: T2, Sm (sphingomyelin); experiment: AtheNA Multi-Lyte ANA, Ab at 6.25 ug/ml;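 note: monoclonal antibodies screened for reactivity against a panel of nuclear autoantigens, with an anti-HIV and an anti-RSV monoclonal antibody serving as controls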
[10] = target: systemic lupus erythematosus autoantigen SSA; experiment: AtheNA Multi-Lyte ANA, Ab at 6.25 ug/ml;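 note: monoclonal antibodies screened for reactivity against a panel of nuclear autoantigens, with an anti-HIV and an anti-RSV monoclonal antibody serving as controls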
[11] = target: T3, histidine-tRNA ligase (Jo-1); experiment: AtheNA Multi-Lyte ANA, Ab at 6.25 ug/ml
[12] = target: ribonucleoprotein (RNP); experiment: AtheNA Multi-Lyte ANA, Ab at 12.5 ug/ml;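 note: monoclonal antibodies screened for binding to a panel of nuclear autoantigens (SSA, SSB, Sm, RNP, Scl-70, Jo-1, dsDNA, CentB, histones), with anti-HIV and anti-RSV antibodies as controls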
[13] = target: T1, sclerosis autoantigen (Scl-70); experiment: AtheNA Multi-Lyte ANA, Ab at 12.5 ug/ml;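 note: monoclonal antibodies screened for binding to a panel of nuclear autoantigens (SSA, SSB, Sm, RNP, Scl-70, Jo-1, dsDNA, CentB, histones), with anti-HIV and anti-RSV antibodies as controls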
[14] = target: T2, Sm (sphingomyelin); experiment: AtheNA Multi-Lyte ANA, Ab at 12.5 ug/ml;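 note: monoclonal antibodies screened for binding to a panel of nuclear autoantigens (SSA, SSB, Sm, RNP, Scl-70, Jo-1, dsDNA, CentB, histones), with anti-HIV and anti-RSV antibodies as controls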
[15] = target: systemic lupus erythematosus autoantigen SSA; experiment: AtheNA Multi-Lyte ANA, Ab at 12.5 ug/ml;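 note: monoclonal antibodies screened for binding to a panel of nuclear autoantigens (SSA, SSB, Sm, RNP, Scl-70, Jo-1, dsDNA, CentB, histones), with anti-HIV and anti-RSV antibodies as controls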
[16] = target: T3, histidine-tRNA ligase (Jo-1); experiment: AtheNA Multi-Lyte ANA, Ab at 12.5 ug/ml

B1: Ab7962/293i (antibody, V domains shown)
VH: LVESGGGLVQPGGSLRLSCAASGFTFSSYEMNWVRQAPGKGLEWVSYISSSGSTIYYADSVKGRFTISRDNAKNSLYLQMNSLRAEDTAVYYCARVEQLAPSPYMDVWGKGTTVTVSS
VL: MTQSLDSLTVSLGERATINCKSSQSLLYTSNNKNYLAWYQQKSGQPPKLLIYWASIRDSGVPDRFSGSGSATDFTLTINNLQAEDVAVYFCQQYYKTPLTFGGGTKVEVR
notes: Recombinant human antibody with IgG1 heavy chain backbone and kappa light chain constant (IgM in the donor B cell); they begin at LVESGGG and MTQSL; also called clone 27; pH007962/pK005996
With B1 the AtheNA signal [1] was 5, the AtheNA signal [2] was 2 and the AtheNA signal [3] was 4. The AtheNA signal [4] was 2, the AtheNA signal [5] was 4 and the AtheNA signal [6] was 8. It also gave an AtheNA signal [7] of 2, an AtheNA signal [8] of 1 and an AtheNA signal [9] of 4. It also gave an AtheNA signal [10] of 2, an AtheNA signal [11] of 4 and an AtheNA signal [12] of 3. It also gave an AtheNA signal [13] of 2, an AtheNA signal [14] of 3 and an AtheNA signal [15] of 2. The AtheNA signal [16] was 5.

B2: Ab7957/293i (antibody, IgG1, V domains shown)
VH: LVESGGGVVPPGKSLRLSCAASGFTFSLYGIHWVRQAPGKGLEWVAVISYDGNTKYYTDSVKGRFTISRDNAKNTIYLQMNSLRLDDTAVYYCAKGAANSATFDFWGRGTMVTVSS
VL: MTQSPDSLTLSLGERATINCRSSRTVLYRSNNKNYLAWYQHKPGQPPKLLMSWASTRETGVPDRFSGSGSGTHFTLTITSLQPEDVAVYYCQQYYSPPWTFGQGTKVEIR
notes: Recombinant human antibody with IgG1 heavy chain backbone and kappa light chain constant; they begin at LVESGGG and MTQSP; also called Ab7957i; mAb 7957
B2 gave an AtheNA signal [1] of 6, an AtheNA signal [2] of 2 and an AtheNA signal [3] of 4. The AtheNA signal [4] was 11, the AtheNA signal [5] was 5 and the AtheNA signal [7] was 3. It also gave an AtheNA signal [8] of 2, an AtheNA signal [9] of 3 and an AtheNA signal [10] of 9. It also gave an AtheNA signal [11] of 3, an AtheNA signal [12] of 3 and an AtheNA signal [13] of 2. For the same binder, the AtheNA signal [14] was 1, the AtheNA signal [15] was 9 and the AtheNA signal [16] was 3.

B3: Ab7968 (antibody, IgG1, V domains shown)
VH: LVESGGGVVQPGRSLRLSCAASGFTFSRYGMHWVRQAPGKGLEWVAVMSYDGSTKYYADSVKGRFAISRDNPKNTLFLQMNSLRPDDTAVYYCAKGGAAAAVMDVWGKGTTVTVSS
VL: MTQSPDSLTVSLGERATISCKSSQRLLYSSNNKNYLAWYQQKPGQPPKLLMYWASTRESGVPDRFSGSGSGTDFSLTISSLQAEDVAVYYCQQYYNPPWTFGQGTKVEVK
notes: Recombinant human antibody with IgG1 heavy chain backbone and kappa light chain constant; they begin at LVESGGG and MTQSP; also called mAb 7968; mAb7968
In the case of B3, the AtheNA signal [1] is reported as 10, the AtheNA signal [2] is reported as 4 and the AtheNA signal [3] is reported as 7. It also gave an AtheNA signal [4] of 7, an AtheNA signal [5] of 7 and an AtheNA signal [6] of 9. It also gave an AtheNA signal [7] of 7, an AtheNA signal [8] of 3 and an AtheNA signal [9] of 4. It also gave an AtheNA signal [10] of 4, an AtheNA signal [11] of 4 and an AtheNA signal [12] of 7. It also gave an AtheNA signal [13] of 3, an AtheNA signal [14] of 7 and an AtheNA signal [15] of 4. The AtheNA signal [16] was 2.
